Measured values as given in patent publication US20060193821.

Assays:
[1] = target: T1, IL-23 (human, p19/p40 heterodimer) (Homo sapiens) (UniProt Q9NPF7+P29460); experiment: filter; conditions: 2'-F C,U; SHMCK, tRNA
[2] = target: T1, IL-23 (human, p19/p40 heterodimer) (Homo sapiens); experiment: cell_activity; conditions: 2'-F C and U, 2'-OH A and G; TransAM STAT3, PHA blasts

T1 sequence (Q9NPF7 20-189, chain 1 of 2): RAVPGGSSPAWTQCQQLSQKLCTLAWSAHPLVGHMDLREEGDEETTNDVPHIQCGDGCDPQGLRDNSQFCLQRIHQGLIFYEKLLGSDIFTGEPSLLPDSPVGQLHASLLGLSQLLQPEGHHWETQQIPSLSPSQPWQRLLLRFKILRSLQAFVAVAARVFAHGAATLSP
T1 sequence (P29460 23-328, chain 2 of 2): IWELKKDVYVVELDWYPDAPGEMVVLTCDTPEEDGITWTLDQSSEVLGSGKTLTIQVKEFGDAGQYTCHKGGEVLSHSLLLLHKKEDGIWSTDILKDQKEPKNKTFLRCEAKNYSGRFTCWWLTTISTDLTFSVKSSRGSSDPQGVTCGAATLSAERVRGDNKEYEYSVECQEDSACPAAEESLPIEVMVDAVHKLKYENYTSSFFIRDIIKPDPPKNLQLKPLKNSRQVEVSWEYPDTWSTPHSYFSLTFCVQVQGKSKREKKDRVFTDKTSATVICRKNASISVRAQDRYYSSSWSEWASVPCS

Sequence: AGGGAAAAGGAAUCAUACACAAGAUGUAUCAUCCGGUCGUACAAAAGCGCCACGGAACCAUUCGCUCCGCCAGANACCAACCGAGAA [ARX33-plate1-H01]
- Kd [1]: 77.8 nM
- IC50 [2]: > 5000 nM
